Assay results published in the supplement of paper PMC9233669.
This sample holds only a part of the variants without activity.

Legend:
biotinyl-Met-oxazolone = experiment: self-aminoacylation, catalytic enhancement (BMO) (fold over background); higher = more active; k-Seq, kA / k0A0; sequences stand for … in GGGAAUGGAUCCACAUCUACGAAUUC…UUCACUGCAGACUUGACGAAGCUG
Summary of the method: (§1)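 Each biotinyl-aminoacyl-oxazolone, at 2–1250 μM, was incubated with mutagenized RNA pools (0.43 μM) carrying a 21-nt variable region. The 50 μL reactions contained HEPES/NaCl/KCl/MgCl2/CaCl2 buffer with 5% acetonitrile at pH 6.9–7.0 and ran for 90 minutes at room temperature. After streptavidin capture, RNA was measured by qPCR in triplicate and by Illumina sequencing, and catalytic enhancement was calculated as median kA over the uncatalyzed rate from a pseudo-first-order fit of per-sequence fraction reacted.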

biotinyl-Trp-oxazolone = experiment: self-aminoacylation, catalytic enhancement (BWO) (fold over background); higher = more active; k-Seq, kA / k0A0; sequences stand for … in GGGAAUGGAUCCACAUCUACGAAUUC…UUCACUGCAGACUUGACGAAGCUG
Summary of the method: as §1

biotinyl-Phe-oxazolone = experiment: self-aminoacylation, catalytic enhancement (BFO) (fold over background); higher = more active; k-Seq, kA / k0A0; sequences stand for … in GGGAAUGGAUCCACAUCUACGAAUUC…UUCACUGCAGACUUGACGAAGCUG
Summary of the method: as §1

biotinyl-Ile-oxazolone = experiment: self-aminoacylation, catalytic enhancement (BIO) (fold over background); higher = more active; k-Seq, kA / k0A0; sequences stand for … in GGGAAUGGAUCCACAUCUACGAAUUC…UUCACUGCAGACUUGACGAAGCUG
Summary of the method: as §1

biotinyl-Leu-oxazolone = experiment: self-aminoacylation, catalytic enhancement (BLO) (fold over background); higher = more active; k-Seq, kA / k0A0; sequences stand for … in GGGAAUGGAUCCACAUCUACGAAUUC…UUCACUGCAGACUUGACGAAGCUG
Summary of the method: as §1

biotinyl-Val-oxazolone = experiment: self-aminoacylation, catalytic enhancement (BVO) (fold over background); higher = more active; k-Seq, kA / k0A0; sequences stand for … in GGGAAUGGAUCCACAUCUACGAAUUC…UUCACUGCAGACUUGACGAAGCUG
Summary of the method: as §1

| Sequence | self-aminoacylation (biotinyl-Met-oxazolone) | self-aminoacylation (biotinyl-Trp-oxazolone) | self-aminoacylation (biotinyl-Phe-oxazolone) | self-aminoacylation (biotinyl-Ile-oxazolone) | self-aminoacylation (biotinyl-Leu-oxazolone) | self-aminoacylation (biotinyl-Val-oxazolone) |
| --- | --- | --- | --- | --- | --- | --- |
| AACUUUGCUAAUAGUAGCAAG [Fam3.1 aminoacylation ribozyme variant] | 2.2 | 2.42 | 2.06 | – | – | – |
| AAGCUUGCUAAUAGUCGCAAU [Fam3.1 aminoacylation ribozyme variant] | 2.34 | 2.66 | 2.59 | 2.93 | – | – |
| AAGCUUGCUAUUAGUCGCAAG [Fam3.1 aminoacylation ribozyme variant] | 2.23 | – | 2.62 | – | 2.48 | – |
| AAGCUUGCUUAUAGUCGCAAG [Fam3.1 aminoacylation ribozyme variant] | – | – | 3.55 | 2.13 | – | – |
| AAGGUCGCUAAUAGUCGCAAG [Fam3.1 aminoacylation ribozyme variant] | – | 2.4 | 2.86 | – | – | 2.13 |
| AAGUAUGCUAAUAGUCGCGAG [Fam3.1 aminoacylation ribozyme variant] | – | 4.06 | 5.66 | 2.14 | 2.21 | – |
| AAGUCUGCUAAUAGUCGUAAG [Fam3.1 aminoacylation ribozyme variant] | 2.5 | 9.94 | 49.6 | – | – | – |
| AAGUUCGCCAAUAGUCGCAAG [Fam3.1 aminoacylation ribozyme variant] | 2.18 | 2.98 | 2.83 | 2.29 | 2.67 | – |
| AAGUUCGCUAAUAGUCGCAAC [Fam3.1 aminoacylation ribozyme variant] | 2.32 | 2.33 | 2.12 | – | – | – |
| AAUUUUGGUAAUAGUCGCAAG [Fam3.1 aminoacylation ribozyme variant] | 2.19 | – | 2.19 | 2.06 | – | – |
| ACGUUUGCUAAUAGUCGCAAA [Fam3.1 aminoacylation ribozyme variant] | – | 2.36 | 2.87 | 2.01 | – | – |
| ACGUUUGCUAAUAGUCGCAUG [Fam3.1 aminoacylation ribozyme variant] | 2.14 | – | 3.06 | 2.21 | 2.5 | – |
| ACGUUUGCUAAUAGUCGCGAG [Fam3.1 aminoacylation ribozyme variant] | – | – | 10.4 | 2.65 | 2.48 | 2.12 |
| ACUACCCUGGUCAUCGAGGGA [Fam2.1 aminoacylation ribozyme variant] | 3.62 | 3.04 | 2.42 | 2.12 | 3.13 | – |
| ACUCACCUAGGUCAUCGGGUC [Fam2.2 aminoacylation ribozyme variant] | 2.24 | – | 7.01 | – | – | – |
| AGGGUUGCUAAUAGUCGCAAG [Fam3.1 aminoacylation ribozyme variant] | 2.18 | – | 4.28 | – | – | – |
| AGUCACCUAGGUCAUCUGGUG [Fam2.2 aminoacylation ribozyme variant] | 2.31 | 2.38 | 15.2 | – | 2.59 | – |
| AUAACCCUGGUCAUCGAGUAA [Fam2.1 aminoacylation ribozyme variant] | 3.64 | 2.47 | 7.47 | – | 3.46 | – |
| AUACACCUAGGUCAACGGGUG [Fam2.2 aminoacylation ribozyme variant] | 2.09 | 2.02 | 6.06 | – | 2.79 | – |
| AUCACCCUGGUCAUCGAGGGA [Fam2.1 aminoacylation ribozyme variant] | 2.2 | 2.94 | 12.5 | – | 3.12 | 2.03 |
| AUGACCCUGGUCAUCGAGGGA [Fam2.1 aminoacylation ribozyme variant] | 3.65 | – | 2.82 | – | 3.03 | – |
| AUUAACCUAGGUCAUCUGGUG [Fam2.2 aminoacylation ribozyme variant] | 2.59 | 2.7 | 13.6 | – | 3.34 | – |
| AUUACCCAGGCCAUCGAGUGA [Fam2.1 aminoacylation ribozyme variant] | 2.52 | – | 11 | – | 2.69 | – |
| AUUACCCUGGACUUCGAGUGA [Fam2.1 aminoacylation ribozyme variant] | 2.96 | 4.38 | 11.4 | – | 3.17 | 2.17 |
| AUUACCCUGGUAAUCGUGUGA [Fam2.1 aminoacylation ribozyme variant] | 3.48 | 4.1 | 22.2 | – | 3.58 | – |
| AUUACCCUGGUCAUCGAGCCA [Fam2.1 aminoacylation ribozyme variant] | 2.36 | 3.35 | 2.92 | 2.01 | 2.23 | – |
| AUUACCCUGGUCAUUGAGUGG [Fam2.1 aminoacylation ribozyme variant] | 2.54 | 3.09 | 2.08 | – | 2.66 | – |

| Sequence | self-aminoacylation (biotinyl-Met-oxazolone) | self-aminoacylation (biotinyl-Trp-oxazolone) | self-aminoacylation (biotinyl-Phe-oxazolone) | self-aminoacylation (biotinyl-Ile-oxazolone) | self-aminoacylation (biotinyl-Leu-oxazolone) | self-aminoacylation (biotinyl-Val-oxazolone) |
| --- | --- | --- | --- | --- | --- | --- |
| AUUACCCUGGUCCUCGUGUGA [Fam2.1 aminoacylation ribozyme variant] | 2.89 | 2.73 | 14 | – | 2.88 | – |
| AUUACCCUGGUUAUCGAGUGU [Fam2.1 aminoacylation ribozyme variant] | 2.66 | 3.92 | 3.12 | – | 2.57 | – |
| AUUACCGUGGUGAUCGAGUGA [Fam2.1 aminoacylation ribozyme variant] | 3.87 | 5.02 | 15.6 | – | 3.67 | 2.31 |
| AUUACUCUGGUCAUCGUGUGA [Fam2.1 aminoacylation ribozyme variant] | 2.45 | 3.34 | 12.5 | – | 2.81 | – |
| AUUCACCGAGGUCAUCGGGUC [Fam2.2 aminoacylation ribozyme variant] | – | – | 7.57 | 2.18 | 2.52 | 2.71 |
| AUUCACCUAAGUCAUCGGGUU [Fam2.2 aminoacylation ribozyme variant] | 2.63 | – | 10.7 | – | 2.55 | – |
| AUUCACCUAGAUCAGCGGGUG [Fam2.2 aminoacylation ribozyme variant] | 2.39 | 2.88 | 11.7 | – | 3.1 | – |
| AUUCACCUAGCUCAUCGGGGG [Fam2.2 aminoacylation ribozyme variant] | 2.42 | – | – | – | – | – |
| AUUCACCUAGCUCAUCGGGUG [Fam2.2 aminoacylation ribozyme variant] | – | – | 7.85 | – | 2.05 | 2.1 |
| AUUCACCUAGGUCAGCGGUUG [Fam2.2 aminoacylation ribozyme variant] | 2.22 | – | 6.39 | – | – | – |
| AUUCACCUAGGUCAGCGUGUG [Fam2.2 aminoacylation ribozyme variant] | 2.16 | – | 11 | – | 2.77 | – |
| AUUCACCUAGGUCUUCAGGUG [Fam2.2 aminoacylation ribozyme variant] | 2.04 | – | 6.96 | – | 2.02 | – |
| AUUCACCUCGGUCAUCGGCUG [Fam2.2 aminoacylation ribozyme variant] | – | 2.02 | 8.33 | – | – | 2.65 |
| AUUCACUUAGUUCAUCGGGUG [Fam2.2 aminoacylation ribozyme variant] | 2.58 | 3.28 | 11.1 | 2.18 | 2.93 | – |
| AUUCAGCUAGGUCAUCUGGUG [Fam2.2 aminoacylation ribozyme variant] | 2.3 | 2.25 | 13.4 | – | 2.35 | – |
| AUUGCCCUGGUCAUCGAGCGA [Fam2.1 aminoacylation ribozyme variant] | 2.55 | 3.11 | 3.91 | – | 3.48 | 2.33 |
| AUUUCCCUGGUCAUCGUGUGA [Fam2.1 aminoacylation ribozyme variant] | 3.61 | 4.8 | 27.1 | – | 3.65 | – |
| CCACACGUCAAGCAAUCGGGC [Fam1B.1 aminoacylation ribozyme variant] | – | – | 2.86 | – | – | 2.23 |
| CCACACUUCGCGCAAUCGGUC [Fam1B.1 aminoacylation ribozyme variant] | – | 2.77 | 10.5 | 2.21 | 2.41 | 2.51 |
| CCACGCUUCAAGCAAUCGGCC [Fam1B.1 aminoacylation ribozyme variant] | – | 8.15 | 7.98 | – | – | 2.77 |
| CCACUUCAAACAAUCGGUCUC [Fam1A.1 aminoacylation ribozyme variant] | 2.08 | 42.2 | 75.8 | – | 2.13 | – |
| CCCCGCUUCAAGCAAUCGGUC [Fam1B.1 aminoacylation ribozyme variant] | 2.12 | 70.4 | 142 | – | 3.73 | 2.69 |
| CCGCGCUUCAAGCAAUCGGUC [Fam1B.1 aminoacylation ribozyme variant] | 2.37 | 77.2 | 158 | – | 3.16 | 2.74 |
| CUACUGCAAACAAUCGGCCUG [Fam1A.1 aminoacylation ribozyme variant] | 2.1 | 2.81 | 3.31 | – | 2.27 | 2.27 |
| CUUCACCUAGAUCAUCGGGUG [Fam2.2 aminoacylation ribozyme variant] | 3.54 | 3.41 | 8.35 | – | 2.86 | 2.12 |
| GUUCACCUAGGUCAACGGGUG [Fam2.2 aminoacylation ribozyme variant] | 2.11 | 3.22 | 17.5 | – | 2.5 | – |
| UUUCACCUAGGUAAUCGGGUG [Fam2.2 aminoacylation ribozyme variant] | 2.66 | 3.75 | 13.1 | 2.1 | 2.27 | – |
